# Measured values reported in patent publication US20210388331A1 (NEURO BIO, published 2021).
# Molecular target: T1, α7 nicotinic-receptor (in rat brain slices / rat brain membranes) (rat, UniProt Q05941 23-502)
# T1 construct: whole, on cells; also called α7 receptor; alpha-7 nicotinic acetylcholine receptor
# Assay: [3H] ivermectin displacement, rat brain membranes (told in the legend of FIG. 6 only)
# T1 sequence (Q05941 23-502): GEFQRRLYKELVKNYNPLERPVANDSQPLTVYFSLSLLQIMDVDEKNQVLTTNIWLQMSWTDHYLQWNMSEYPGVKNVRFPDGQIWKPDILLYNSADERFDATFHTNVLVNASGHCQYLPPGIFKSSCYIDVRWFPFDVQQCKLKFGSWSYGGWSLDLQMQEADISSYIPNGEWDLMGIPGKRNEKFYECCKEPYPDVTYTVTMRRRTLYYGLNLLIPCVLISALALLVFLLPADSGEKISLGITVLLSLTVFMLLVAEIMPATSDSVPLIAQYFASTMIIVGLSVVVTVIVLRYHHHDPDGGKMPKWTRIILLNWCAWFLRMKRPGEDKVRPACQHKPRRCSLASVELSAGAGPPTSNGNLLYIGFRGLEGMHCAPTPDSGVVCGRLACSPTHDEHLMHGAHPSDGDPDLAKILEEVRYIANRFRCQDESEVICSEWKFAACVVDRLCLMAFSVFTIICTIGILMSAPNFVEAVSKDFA
binder,measurement,value
"AEFHRWSSYMVHWK (also called linear T14) [T14 (AChE C-terminal peptide, linear)]",binding result,binds
